For experiment [1], the target named is integrin α5β1 (mouse (endogenous in mouse synovial cells)) (UniProt P11688). Put plainly: flow cytometry on cells; mouse synovial cells blocked with 1% BSA, incubated with 1, 10 or 75 uM HM-3-Fc for 1 h at 4 °C, no blocking antibody; FITC-protein A as probe for the Fc part.
For experiment [2], the target named is integrin αvβ3 (mouse (endogenous in mouse synovial cells)) (UniProt P43406). Described as above.
Experiment [3] concerns the target integrin α5β1 (mouse (endogenous in mouse synovial cells)) (UniProt P11688). Kind of experiment: flow cytometry on cells; mouse synovial cells first incubated with anti-αvβ3, anti-α5β1 or both blocking antibodies for half an hour at 4 °C, washed, then 75 uM HM-3-Fc for 1 h at 4 °C; FITC-protein A as probe.
In experiment [4] the target is integrin αvβ3 (mouse (endogenous in mouse synovial cells)) (UniProt P43406). The experiment is described as above.

Chain of UniProt P11688 (P11688 45-1053, chain 1 of 2): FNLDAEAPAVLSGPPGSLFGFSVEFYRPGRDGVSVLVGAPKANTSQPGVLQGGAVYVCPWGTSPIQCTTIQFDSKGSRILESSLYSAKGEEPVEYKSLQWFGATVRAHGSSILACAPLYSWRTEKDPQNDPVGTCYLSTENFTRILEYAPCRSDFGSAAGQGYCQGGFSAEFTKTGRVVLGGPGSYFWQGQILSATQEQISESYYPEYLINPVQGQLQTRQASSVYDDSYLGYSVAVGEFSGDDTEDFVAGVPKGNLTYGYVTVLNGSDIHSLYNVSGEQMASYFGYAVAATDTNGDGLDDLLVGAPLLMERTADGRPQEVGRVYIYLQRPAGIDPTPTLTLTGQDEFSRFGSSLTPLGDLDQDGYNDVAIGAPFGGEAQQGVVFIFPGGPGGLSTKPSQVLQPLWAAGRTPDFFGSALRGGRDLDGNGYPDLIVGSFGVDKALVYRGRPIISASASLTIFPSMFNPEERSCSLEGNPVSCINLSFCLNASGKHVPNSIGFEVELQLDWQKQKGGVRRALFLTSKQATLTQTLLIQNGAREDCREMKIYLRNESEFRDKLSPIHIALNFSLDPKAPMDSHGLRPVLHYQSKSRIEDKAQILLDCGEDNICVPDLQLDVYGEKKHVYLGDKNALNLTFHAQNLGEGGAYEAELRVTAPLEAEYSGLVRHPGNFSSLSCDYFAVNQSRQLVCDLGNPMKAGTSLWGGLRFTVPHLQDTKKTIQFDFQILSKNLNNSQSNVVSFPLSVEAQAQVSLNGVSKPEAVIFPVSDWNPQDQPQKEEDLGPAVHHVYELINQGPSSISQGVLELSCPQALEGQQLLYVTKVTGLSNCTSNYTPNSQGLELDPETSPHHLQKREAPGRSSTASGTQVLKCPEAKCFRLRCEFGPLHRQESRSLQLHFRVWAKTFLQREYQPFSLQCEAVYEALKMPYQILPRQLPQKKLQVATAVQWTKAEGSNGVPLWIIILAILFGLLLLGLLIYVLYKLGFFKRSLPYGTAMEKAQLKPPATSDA
Chain of UniProt P11688 (P09055 21-798, chain 2 of 2, further chain): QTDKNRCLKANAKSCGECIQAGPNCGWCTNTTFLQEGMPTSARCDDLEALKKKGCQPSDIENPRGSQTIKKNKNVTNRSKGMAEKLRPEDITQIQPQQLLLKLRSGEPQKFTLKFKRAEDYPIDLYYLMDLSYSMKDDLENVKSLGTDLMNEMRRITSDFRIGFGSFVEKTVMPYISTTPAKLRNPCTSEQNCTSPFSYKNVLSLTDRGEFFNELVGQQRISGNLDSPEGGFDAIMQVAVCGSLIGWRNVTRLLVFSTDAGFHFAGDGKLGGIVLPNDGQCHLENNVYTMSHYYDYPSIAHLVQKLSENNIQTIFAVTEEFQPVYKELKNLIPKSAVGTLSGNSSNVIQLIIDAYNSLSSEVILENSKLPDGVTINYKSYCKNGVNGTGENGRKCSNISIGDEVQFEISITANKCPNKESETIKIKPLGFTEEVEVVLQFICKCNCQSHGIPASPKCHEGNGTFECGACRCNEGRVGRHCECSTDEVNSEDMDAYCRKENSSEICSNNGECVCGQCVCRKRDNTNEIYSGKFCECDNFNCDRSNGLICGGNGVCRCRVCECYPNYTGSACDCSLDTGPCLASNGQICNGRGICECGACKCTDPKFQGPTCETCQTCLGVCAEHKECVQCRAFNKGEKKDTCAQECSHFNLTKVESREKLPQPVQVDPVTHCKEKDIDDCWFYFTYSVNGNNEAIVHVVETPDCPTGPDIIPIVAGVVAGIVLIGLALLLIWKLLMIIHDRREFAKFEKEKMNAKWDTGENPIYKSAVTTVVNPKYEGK
Chain of UniProt P43406 (P43406 31-1044, chain 1 of 2): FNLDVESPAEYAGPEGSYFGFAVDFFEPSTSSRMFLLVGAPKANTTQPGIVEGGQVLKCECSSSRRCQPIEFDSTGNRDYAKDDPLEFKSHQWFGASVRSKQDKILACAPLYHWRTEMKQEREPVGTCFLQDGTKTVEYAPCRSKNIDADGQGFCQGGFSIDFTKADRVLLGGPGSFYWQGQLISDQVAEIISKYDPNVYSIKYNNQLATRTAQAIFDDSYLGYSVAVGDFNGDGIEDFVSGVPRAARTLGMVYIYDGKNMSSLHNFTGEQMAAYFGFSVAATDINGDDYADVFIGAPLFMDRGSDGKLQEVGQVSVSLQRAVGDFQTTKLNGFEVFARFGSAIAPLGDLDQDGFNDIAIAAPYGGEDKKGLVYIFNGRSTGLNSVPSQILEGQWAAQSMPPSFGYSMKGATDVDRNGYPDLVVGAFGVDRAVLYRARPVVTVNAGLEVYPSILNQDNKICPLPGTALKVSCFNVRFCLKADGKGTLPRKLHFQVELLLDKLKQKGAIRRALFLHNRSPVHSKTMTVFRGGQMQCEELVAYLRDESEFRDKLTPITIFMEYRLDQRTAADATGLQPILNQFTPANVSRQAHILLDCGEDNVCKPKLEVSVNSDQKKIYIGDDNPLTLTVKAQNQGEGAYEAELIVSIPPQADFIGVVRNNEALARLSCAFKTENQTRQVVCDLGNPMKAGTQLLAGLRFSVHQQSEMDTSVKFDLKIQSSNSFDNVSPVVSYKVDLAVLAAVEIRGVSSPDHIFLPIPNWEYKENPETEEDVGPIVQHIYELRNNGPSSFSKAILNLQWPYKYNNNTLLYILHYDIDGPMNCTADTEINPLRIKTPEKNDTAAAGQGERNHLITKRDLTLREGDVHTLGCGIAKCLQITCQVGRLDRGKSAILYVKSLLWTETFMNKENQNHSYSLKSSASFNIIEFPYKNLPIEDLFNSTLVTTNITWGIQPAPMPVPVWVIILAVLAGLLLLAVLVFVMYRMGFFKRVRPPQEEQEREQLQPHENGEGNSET
Chain of UniProt P43406 (O54890 26-787, chain 2 of 2, further chain): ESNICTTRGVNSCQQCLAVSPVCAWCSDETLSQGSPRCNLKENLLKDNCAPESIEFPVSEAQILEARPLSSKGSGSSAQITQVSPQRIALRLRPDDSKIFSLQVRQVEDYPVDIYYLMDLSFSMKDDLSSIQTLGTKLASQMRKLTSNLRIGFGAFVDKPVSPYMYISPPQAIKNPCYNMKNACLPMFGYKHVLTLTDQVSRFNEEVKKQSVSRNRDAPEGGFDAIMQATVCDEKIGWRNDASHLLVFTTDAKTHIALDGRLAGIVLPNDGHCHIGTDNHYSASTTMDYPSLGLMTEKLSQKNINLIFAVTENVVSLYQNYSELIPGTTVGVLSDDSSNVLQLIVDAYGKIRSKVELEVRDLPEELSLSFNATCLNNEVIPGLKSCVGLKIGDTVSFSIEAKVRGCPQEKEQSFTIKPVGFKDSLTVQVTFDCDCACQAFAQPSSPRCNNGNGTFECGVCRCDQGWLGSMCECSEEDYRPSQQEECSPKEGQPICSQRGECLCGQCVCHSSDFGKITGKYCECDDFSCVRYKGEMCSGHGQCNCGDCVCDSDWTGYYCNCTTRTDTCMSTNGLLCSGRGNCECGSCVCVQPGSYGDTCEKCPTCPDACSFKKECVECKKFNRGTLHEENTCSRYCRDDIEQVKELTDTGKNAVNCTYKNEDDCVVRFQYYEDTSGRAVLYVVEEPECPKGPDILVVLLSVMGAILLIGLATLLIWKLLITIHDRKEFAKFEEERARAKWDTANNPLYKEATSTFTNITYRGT

Turning to HM-3-Fc fusion protein, the binding rate (percent of cells positive) at 75 umol/L, unblocked cells that carry both integrins in experiment [1] was found to be 70.7%. Also, the binding rate (percent of cells positive) at 75 umol/L, unblocked cells that carry both integrins in experiment [2] was 70.7%. In experiment [3], this substance had a binding rate (percent of cells positive) at 75 umol/L after block of αvβ3 and α5β1 together of 0.01%; a binding rate (percent of cells positive) at 75 umol/L after block with an anti-α5β1 antibody of 11.2%. In experiment [4], this substance displayed a binding rate (percent of cells positive) at 75 umol/L after block of αvβ3 and α5β1 together of 0.01%; a binding rate (percent of cells positive) at 75 umol/L after block with an anti-αvβ3 antibody of 1.4%.

These data come from paper PMC6163367.
